Source: patent US8362216B2, “Method of detection using antibodies that specifically bind hedgehog-derived polypeptides” (The Johns Hopkins University School of Medicine, priority 1994, dated 2013)

Tests used:
[1] = molecular target: T1, in-vitro translated Hh protein (Drosophila melanogaster, UniProt Q02936); experiment: Proteinase inhibitor studies on auto-proteolysis of in vitro translated Hh protein; assay type: biochemical; conditions: inhibitor added to translation reaction
T1 construct: The full length form of the hh protein (F) migrates with a mobility corresponding to a relative molecular mass of 46 kD; made in house; host or cells: cell-free: TNT coupled transcription-translation system (Promega)
T1 sequence (Q02936 1-471): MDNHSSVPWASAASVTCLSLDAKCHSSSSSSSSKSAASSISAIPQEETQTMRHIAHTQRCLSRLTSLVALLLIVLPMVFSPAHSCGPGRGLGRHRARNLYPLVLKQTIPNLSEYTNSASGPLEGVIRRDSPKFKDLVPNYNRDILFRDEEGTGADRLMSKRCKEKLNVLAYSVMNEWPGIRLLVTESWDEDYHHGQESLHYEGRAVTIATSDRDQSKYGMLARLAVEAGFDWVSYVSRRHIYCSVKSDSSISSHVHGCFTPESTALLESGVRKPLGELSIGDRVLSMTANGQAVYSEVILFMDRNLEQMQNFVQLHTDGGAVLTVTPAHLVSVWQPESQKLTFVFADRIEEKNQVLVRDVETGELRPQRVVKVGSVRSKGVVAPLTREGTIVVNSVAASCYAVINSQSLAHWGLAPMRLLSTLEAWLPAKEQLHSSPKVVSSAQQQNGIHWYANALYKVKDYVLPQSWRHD
Procedure: In some cases the effectiveness of an inhibitor was assayed by determining if addition of an inhibitor to a completed translation reaction will inhibit the self-processing that normally continues to occur.

[2] = Solubility and proteolytic stability of purified Hh carboxy-terminal fragments; assay type: physicochemical; conditions: purified protein
Procedure: Protein expression and purification: Drosophila melanogaster Hh protein in which most of the amino-terminai signaling domain and signal sequence have been replaced by a hexa-histidine tag (His6Hh-C25) was expressed as previously described (Porter et al., 1995). SeMet His6Hh-C25 was prepared by expression in E. coli strain B834 (DE3) pLysS, a methionine auxotroph, and growth in minimal media as previously described (Leahy et al., 1994). This His6-taggcd protein was purified on a Ni^++-NTA agarose column and autocleavage stimulated by addition of 50 mM DTT. After removal of the DTT by dialysis, the cleaved protein was passed over a Ni^++-NTA agarose column and the Hh carboxy-terminal domain, Hh-C25, collected in the column run through. Hh-C25 was subjected to limited proteolysis by overnight incubation with 1:500 (w:w) subtilisin (Boehringer Mannheim) at 4° C. A protease-stable fragment of approximately 17 kDa, Hh-C17, was identified by SDS-PAGE and purified by anion-exchange chromatography utilizing a Mono-Q column (Pharmacia). The amino- and carboxy-terminal residues of Hh-C17 were determined to be Cys-258 and Ser-408, respectively, by mass spectral analysis of cyanogen bromide-cleaved fragments. Mass spectral analysis was performed as previously described (Porter et al., 1996a).
Drosophila melanogaster Hh in which the signal sequence and most of the amino-terminal signaling domain have been replaced by a hexahistidine tag was expressed in E. coli as previously described (Porter et al., 1995). Following purification with Ni^++-NTA agarose, this protein cleaves itself in vitro in the presence of either DTT or cholesterol to liberate the 25 kDa Hh-C fragment (Hh-C25, residues Cys-258 to Asp-471). […] All residues absolutely conserved in Hh-C homologues (Porter et al., 1996a), including the nematode sequences, are contained in Hh-C17. To determine if Hh-C17 retained autoprocessing activity, a mutant version of His-tagged Hh-C containing a termination codon at residue position 409 (His6Hh-C17) was expressed and assayed for autocleavage in the presence of DTT and cholesterol.

[3] = test system: neural and cement gland marker gene expression; experiment: Xenopus animal (blastula) cap explants / Keller sandwiches from RNA-injected embryos, RT-PCR of marker genes; assay type: cell-based
Procedure: cDNAs encoding full-length Xenopus hedgehogs, or encoding amino terminal or carboxy terminal domains linked to secretory leader sequences were transcribed in vitro to yield translatable messenger RNA. The synthetic messenger RNAs, and control mRNAs, were microinjected into the animal poles of cleavage stage Xenopus embryos, which were allowed to develop to the blastula stage, at which time the animal cap explants were prepared from the upper one fourth of the embryo. These blastula cap explants were then cultured in vitro in physiological saline in the presence or absence of the transforming growth factor beta family member, recombinant human activin A. All explants were allowed to develop until control embryos had grown to neurula stage, or to tadpole stage. Importantly, blastula caps left untreated differentiate from ectoderm into atypical epidermis. Blastula caps treated with activin differentiate into mesodermal and neural cell types. Thus, the question was whether hedgehog, or its proteolytic derivatives, would change the differentiation of cells away from becoming epidermis, and into another cell type. A second question was whether hedgehog can work with activin to alter the normal response of the tissue to either factor by itself.
Explants were then extracted to yield mRNA by methods commonly used by those of skill in the art, which was used as template with reverse transcriptase to yield cDNA. The cDNA was then used as template with various sets of primers for PCR for specific genes, reverse-trahscriptase-polymerase chain reaction, or RT-PCR. […] Thus, the darker bands correspond to a greater level of the specific mRNA.
(A) Isolation of dorsal explants from injected embryos for the preparation of Keller sandwiches (Keller and Danilchik, 1988; Doniach, et al, 1992; redrawn from Doniach, 1993). (B) Keller sandwiches were made from uninjected (lanes 1 and 2) and X-bhh-injected (lanes 3 and 4) embroys, total RNA was isolated when control embryos reached stage 20, and RT-PCR was used to analyze the expression of XAG-1 and neural markers. XAG-1 is a cement gland marker, XANF-2 is an anterior pituitary marker, Otx-A is a forebrain marker, En-2 demarcates the midbrain-hindbrain boundary, Krox-20 marks rhombomeres 3 and 5 of the hindbrain and X/Hbox-6 is a spinal cord marker. N-CAM is a general neural marker whose expression is not restricted along the anteroposterior axis. […] Note that expression of XAG-1 and anterior neural markers is stimulated by X-bhh treatment, whereas expression of posterior neural markers is suppressed.

auto-proteolysis = experiment: In vitro translation of wild-type and mutant Hh proteins (mapping of auto-proteolysis); assay type: biochemical, Drosophila; zebrafish

## CC(C)C[C@H](NC(=O)[C@H]1O[C@@H]1C(=O)O)C(=O)NCCCCN=C(N)N [E-64]
[1]
  Inhibition of auto-proteolysis of in-vitro translated Hh protein: do not block

## CC(=O)N[C@@H](CC(C)C)C(=O)N[C@@H](CC(C)C)C(=O)N[C@H](C=O)CCCNC(=N)N [leupeptin]
[1]
  Inhibition of auto-proteolysis of in-vitro translated Hh protein: do not block

## Hh-C17: ~17 kDa subtilisin-stable fragment of Hh-C25, residues Cys-258 to Ser-408
[2]
  Solubility: improved solubility
  Stability to proteolysis: protease-stable

## a, anti-trypsin: proteinase inhibitor, probably α1-antitrypsin
[1]
  Inhibition of auto-proteolysis of in-vitro translated Hh protein: do not block

## prolactin [reference compound]
[3]
  Induction of pituitary gene XANF1B: does not lead to this elevated level of pituitary gene

B1: Hh-C25: 25 kDa Drosophila Hh-C fragment, residues Cys-258 to Asp-471 (protein)
chain: CFTPESTALLESGVRKPLGELSIGDRVLSMTANGQAVYSEVILFMDRNLEQMQNFVQLHTDGGAVLTVTPAHLVSVWQPESQKLTFVFADRIEEKNQVLVRDVETGELRPQRVVKVGSVRSKGVVAPLTREGTIVVNSVAASCYAVINSQSLAHWGLAPMRLLSTLEAWLPAKEQLHSSPKVVSSAQQQNGIHWYANALYKVKDYVLPQSWRHD
[2]
  Solubility: poorly soluble in the absence of detergents
  Stability to proteolysis: susceptible to further proteolytic breakdown when concentrated to 1 mg/ml or greater

B2: soybean trypsin inhibitor: proteinase inhibitor (protein, UniProt P01070 25-205, looked up)
Trypsin inhibitor A: DFVLDNEGNPLENGGTYYILSDITAFGGIRAAPTGNERCPLTVVQSRNELDKGIGTIISSPYRIRFIAEGHPLSLKFDSFAVIMLCVGIPTEWSVVEDLPEGPAVKIGENKDAMDGWFRLERVSDDEFNNYKLVFCPQQAEDDKCGDIGISIDHDDGTRRLVVSKNKPLVVQFQKLDKESL
[1]
  Inhibition of auto-proteolysis of in-vitro translated Hh protein: do not block

B3: noggin: independent neural inducer (protein, UniProt P49011 20-222, looked up)
Noggin: RIDQGGCQHYLHIRPAPSENLPLVDLIEHPDPIYDPKEKDLNETLLRTLMVGHFDPNFMATILPEERLGVEDLGELDLLLRQKPSGAMPAEIKGLEFYEGLQSKKHRLSKKLRRKLQMWLWSQTFCPVLYTWNDLGTRFWPRYVKVGSCYSKRSCSVPEGMVCKAAKSMHLTILRWRCQRRVQQKCAWITIQYPVISECKCSC
[3]
  Induction of general neural gene NCAM: induces the general neural gene, NCAM
  Induction of pituitary gene XANF1B: able to induce pituitary gene and forebrain gene

B4: activin: recombinant human activin A, transforming growth factor beta family member (protein, UniProt P08476 311-426, looked up)
Inhibin beta A chain: GLECDGKVNICCKKQFFVSFKDIGWNDWIIAPSGYHANYCEGECPSHIAGTSGSSLSFHSTVINHYRMRGHSPFANLKSCCVPTKLRPMSMLYYDDGQNIIKKDIQNMIVEECGCS
[3]
  Induction of pituitary gene XANF1B: also express the pituitary gene

B5: H270A: zebrafish shh protein with H270A mutation (protein, UniProt Q92008 24-418, looked up, variant H270A)
Sonic hedgehog protein: CGPGRGYGRRRHPKKLTPLAYKQFIPNVAEKTLGASGRYEGKITRNSERFKELTPNYNPDIIFKDEENTGADRLMTQRCKDKLNSLAISVMNHWPGVKLRVTEGWDEDGHHFEESLHYEGRAVDITTSDRDKSKYGTLSRLAVEAGFDWVYYESKAHIHCSVKAENSVAAKSGGCFPGSALVSLQDGGQKAVKDLNPGDKVLAADSAGNLVFSDFIMFTDRDSTTRRVFYVIETQEPVEKITLTAAALLFVLDNSTEDLHTMTAAYASSVRAGQKVMVVDDSGQLKSVIVQRIYTEEQRGSFAPVTAHGTIVVDRILASCYAVIEDQGLAHLAFAPARLYYYVSSFLFPQNSSSRSNATLQQEGVHWYSRLLYQMGTWLLDSNMLHPLGMSVNSS
auto-proteolysis
  Auto-proteolysis (processing) of in vitro translated protein: blocked

B6: H273A: zebrafish twhh protein with H273A mutation (protein, UniProt Q90419 27-416, looked up, variant H273A)
Tiggy-winkle hedgehog protein: CGPGRGYGKRRHPKKLTPLAYKQFIPNVAEKTLGASGKYEGKITRNSERFKELIPNYNPDIIFKDEENTNADRLMTKRCKDKLNSLAISVMNHWPGVKLRVTEGWDEDGHHLEESLHYEGRAVDITTSDRDKSKYGMLSRLAVEAGFDWVYYESKAHIHCSVKAENSVAAKSGGCFPGSGTVTLGDGTRKPIKDLKVGDRVLAADEKGNVLISDFIMFIDHDPTTRRQFIVIETSEPFTKLTLTAAALVFVGNSSAASGITATFASNVKPGDTVLVWEDTCESLKSVTVKRIYTEEHEGSFAPVTAHGTIIVDQVLASCYAVIENHKWAHWAFAPVRLCHKLMTWLFPARESNVNFQEDGIHWYSNMLFHIGSWLLDRDSFHPLGILHLS
auto-proteolysis
  Auto-proteolysis (processing) of in vitro translated protein: blocked
